Laboratory results: patent publication US12649776B2, “Scaffold proteins and therapeutic nanoconjugates based on nidogen” (UNIVERSITAT AUTÒNOMA DE BARCELONA, priority 2019, dated 2026)

Experiments:
[1] = Stability study in buffers: soluble protein loss after dialysis (Bradford, Nanodrop)
Protocol: For the stability study in other buffers, purified protein fractions were dialyzed against chosen FDA-approved buffer and carbonate as control. Protein concentration was initially set at 2.0 mg/ml in carbonate buffer and dialysed into 0.5 ml of each new buffer. Samples were centrifuged for 15 min 15000 g to remove precipitate and the remaining soluble protein concentration was determined by Bradford's assay and Nanodrop.
The stability of resulting proteins was studied in three FDA-approved buffers, and carbonate as control buffer.

[2] = Volume size distribution of protein nanoparticles and nanoconjugates by Dynamic Light Scattering (DLS); format: physicochemical; details: for Nanoparticle size after assembly with ZnCl2 (DLS): assembled with ZnCl2 (0.04 mM and further concentrations up to 0.16 mM)
Protocol: Volume size distribution of all protein nanoparticles and nanoconjugates were determined by Dynamic Light Scattering (DLS) at 633 nm in a Zetasizer Nano ZS (Malvern Instruments) in triplicate.
Volume size distribution of protein nanoparticles was determined in a Zetasizer Nano ZS (Malvern Instruments) by Dynamic Light Scattering (DLS) at 633 nm in triplicates.
The integrity of the recombinant proteins was checked by mass spectrometry (MALDI-TOF), TGX (Tris-Glycine eXtended) Stain-Free acrylamide gels electrophoresis (BioRad) and Western Blot analysis using anti-His monoclonal antibody (1:1000; Santa Cruz, ref. 57598). Protein concentration was determined by Bradford (Biorad) assay with an Albumin (Roche) standard curve. GFP fluorescence emission (510 nm) was determined on purified proteins with a Cary Eclipse fluorescence spectrophotometer (Agilent Technologies) using an excitation wavelength of 450 nm. The volume and size distribution of nanoparticles were measured by dynamic light scattering (DLS) at 633 nm through a Zetasizer Nano ZS (Malvern Instruments) using quartz cuvettes.

[3] = Precipitation assay against increasing concentrations of ZnCl2; format: physicochemical; details: increasing ZnCl2 up to 0.16 mM
Protocol: T22-NIDOmut3-H6, T22-NIDOmut4 T215V-H6 and T22-NIDOmut5-H6 were selected to proceed with the characterization due to their best production yields (24, 26 and 28 mg/L, respectively). At this point, volume-size distribution of each candidate was studied via DLS (FIG. 16). All three candidates were equivalent to the original T22-NIDOmut2-H6 in size before and after assembly into nanoparticles with ZnCl2 (0.04 mM). […] Precisely because Zn is used to mediate this assembly, it was deemed appropriate to perform a precipitation assay against increasing concentrations of ZnCl2, up to 0.16 mM, (FIG. 17A) to test whether the new proteins were resistant to Zn-induced precipitation or not.

[4] = Intrinsic fluorescence (Centre of Spectral Mass) vs temperature, unfolding temperature determination; format: physicochemical; details: for Stability indexes Tm, Tonset and ΔT from CSM profiles: carbonate and FDA-approved buffers A9, B6, D1
Protocol: Fluorescence spectra were recorded in a Cary Eclipse spectrofluorimeter (Agilent Technologies, Mulgrave, Australia). A quartz cell with 10 mm path length and a thermostated holder was used. The excitation and emission slits were set at 5 nm. Excitation wavelength (λex) was set at 295 nm. Emission spectra were acquired within a range from 310 to 450 nm. The protein concentration was 0.2 mg/mL in carbonate buffer (166 mM NaCO3H, pH 8). In order to evaluate the conformation stability against heating we obtained the fluorescence spectra at each temperature at a 1° C./min scan rate and we calculated the Centre of Spectral Mass (CSM) for each spectrum. CSM is a weighted average of the fluorescence spectrum peak. Also it is related with the relative exposure of the Trp to the protein environment. The maximum red-shift in the CSM of the Trp, is compatible with a large solvent accessibility (Li, T. M.; et al., Biochemistry 1976, 15, 5571-80; Ruan, K and Weber, G, Biochemistry 1989, 28 (5), 2144-53 and Mohana-Borges, R. et al., Proceedings of the National Academy of Sciences of the United States of America 1999, 96 (14), 7888-93) and the protein unfolding.
The Centre of Spectral Mass (CSM) was calculated for each of the fluorescence emission according to Eq.1 (Lakowicz, J. R.; et al., 1991, Biophys Chem 39(1), 79-84), where Ii is the fluorescence intensity measure at the wavelength λi.
Midpoint unfolding temperature (Tm) was determined as the temperature value that correspond to the inflexion point of the CSM vs T° curve. We also determined the Tonset as the temperature where the CSM value begins to increase.

CXCR4+ HeLa cells = experiment: In vitro cell viability of FdU nanoconjugates (CellTiter-Glo Luminescent Cell Viability Assay); format: cell-based, Human; details: CXCR4+ HeLa cell line, 25 nM, 48 h
Protocol: HeLa cells (ATCC, CCL-2) were incubated in opaque 96-well plates in 90 μl of MEM alpha medium (Gibco) containing 10% of Fetal bovine serum (Gibco) in humidified atmosphere and 5% CO 2 at 37° C. Then, 10 μl of T22-NIDOmut3-H6-FdU and T22-NIDOmut2-H6-FdU nanoconjugates were added along with the control T22-NIDOmut3-H6 at 25 nM final concentration and incubated for additional 48 h. Cell viability was finally tested by CellTiter-Glo® Luminescent Cell Viability Assay (Promega) in a Victor 3 luminescent plate reader (Perkin Elmer). All samples were analyzed in triplicate and data expressed as mean % of viability (related to control cells)+/− standard error.

| Molecule | % Precipitation (Bradford) ([1]; buffer A9) | % Precipitation (Nanodrop) ([1]; buffer A9) | % Precipitation (Bradford) ([1]; buffer B6) | % Precipitation (Nanodrop) ([1]; buffer B6) | % Precipitation (Bradford) ([1]; buffer Carbonate) | % Precipitation (Nanodrop) ([1]; buffer Carbonate) | % Precipitation (Bradford) ([1]; buffer D1) | % Precipitation (Nanodrop) ([1]; buffer D1) | Nanoparticle size (volume size distribution, DLS) ([2]; self-assembled material in storage (carbonate) buffer) | Loss of the initial soluble protein by Zn-induced precipitation [3] | Solubility after dialysis ([1]; buffer A9) | Stability indexes Tm, Tonset and ΔT from CSM profiles [4] | Nanoparticle size after assembly with ZnCl2 (DLS) [2] | Solubility after dialysis ([1]; buffer B6) | Cytotoxicity (CXCR4+ HeLa cells) | Tm ([4]; *Tm value assuming that the maximal CSM values represent the entirely unfolding state of the protein) | Tonset, 1 ([4]; temperature where the CSM value begins to increase) |
| --- | --- | --- | --- | --- | --- | --- | --- | --- | --- | --- | --- | --- | --- | --- | --- | --- | --- |
| T22-NIDOmut2-H6: Modular protein: N-terminal T22 CXCR4 ligand, linker, mutated human nidogen-1 G2 domain (NIDOmut2), C-terminal poly-histidine; SEQ ID NO: 61 (protein) RRWCYRKCYKGYCYRKCRGGSSRSSSPQRVNGKVKGRIFVGSSQVPIVFENTDLASYVVMNHGNSYTAISTIPETVGYSLLPLAPVGGIIGWMFAVEQDGFKNGFSITGGEFTRQAEVTFVGHPGNLVIKQRFSGIDEHGHLTIDTELEGRVPQIPFGSSVHIEPYTELYHYSTSVITSSSTREYTVTEPERDGASPSRIYTYQWRQTITFQECVHDDSRPALPSTQQLSVDSVSVLYNQEEKILAYALSNSIGPVREGSPDAKHHHHHH | 12.7% | 29.0% | None | None | 17.6% | 23.9% | 84.1% | 86.5% | ~12 nm | up to 66% | – | – | – | – | – | – | – |
| T22-NIDOmut5-H6: T22 fusion protein, SEQ ID NO: 113 (protein, T22-NIDOmut5-H6) RRWCYRKCYKGYCYRKCRGGSSRSSSPQRVNGKVKGRIFVGSSQTPIVFENTDLASYVVMNHGNSYTAISTIPETVGYSLLPLAPVGGIIGWMFAVEQDGFKNGFSITGGEFTRQAEVTFQGHPGNLVIKQRFSGIDEKGNLTIDTELEGRVPQIPEGSSVHIEPYTELYHYSTSVITSSSTREYTVTEPERDGASPSRIYTYQWRQTITFQESTHDDSRPALPSTQQLSVDSVSVLYNQEEKILAYALSNSIGPVREGSPDAKHHHHHH | None | None | 15.4% | 26.6% | 60.4% | 24.2% | 50.1% | 62.4% | – | – | best suited | Second protein with better stability indexes | nanoparticles of higher size | – | – | – | – |
| T22-NIDOmut3-H6: T22-linker-NIDOmut3-H6 fusion protein, SEQ ID NO: 106 (protein, T22-NIDOmut3-H6) RRWCYRKCYKGYCYRKCRGGSSRSSSPQRVNGKVKGRIFVGSSQVPIVFENTDLASYVVMNHGNSYTAISTIPETVGYSLLPLAPVGGIIGWMFAVEQDGFKNGFSITGGEFTRQAEVTFVGHPGNLVIKQRFSGIDEKGNLTIDTELEGRVPQIPFGSSVHIEPYTELYHYSTSVITSSSTREYTVTEPERDGASPSRIYTYQWRQTITFQECVHDDSRPALPSTQQLSVDSVSVLYNQEEKILAYALSNSIGPVREGSPDAKHHHHHH | 10.25% | 15.4% | 5.4% | None | 17.6% | 24.5% | 83.6% | 84.3% | – | – | – | shows the highest values | 17 nm | remained highly soluble | did not cause any cytoxicity | – | – |
| STMH6: Isolated hexahistidine-tagged stefin A (protein, UniProt P01040 1-98, looked up, His6 tag, Isolated hexahistidine-tagged stefin A) Cystatin-A: MIPGGLSEAKPATPEIQEIVDKVKPQLEEKTNETYGKLEAVQYKTQVVAGTNYYIKVRAGDNKYMHLKVFKSLPGQNEDLVLTGYQVDKNKDDELTGF | – | – | – | – | – | – | – | – | – | – | – | – | – | – | – | ≅76° C.* | 70 °C |
